Laboratory results taken from patent US20220096653A1, “CONJUGATE COMPRISING LIGAND AND CEACAM5 ANTIBODY FAB FRAGMENT” (ASTELLAS PHARMA INC., priority 2019, published 2022).
Like-named read-outs stand apart in the source and are kept apart here.

Key:
[1] = Kidney accumulation evaluation test of Gd-labeled conjugates, normal mice (Example 4-1)
[2] = mouse, in vivo
Method: (§1) A Gd-labeled conjugate of the conjugate containing a peptide linker produced in one of the above Examples was administered from the tail vein of mice (BALB/c or BALB/c nu/nu) so that the protein mass was 0.02 mg (100 μL) per animal. After about 24 hours, the mice were sacrificed and the kidneys were removed, and the amount of Gd in the kidneys was measured using ICP-MS. The present test was carried out in 3 cases in each group, the mean value of the 3 cases was calculated, and the amount of Gd contained per kidney after administration was shown as a percentage (% of dose/tissue) of the total amount of Gd administered.

[3] = set-up: species or system mice (BALB/c or BALB/c nu/nu); details: mouse, in vivo
Method: as §1

[4] = set-up: species or system mice (BALB/c nu/nu); details: mouse, in vivo
Method: A Gd-labeled conjugate of the conjugate containing a peptide linker produced in one of the above Examples was administered from the tail vein of tumor-bearing mice so that the protein mass was 0.02 mg (100 μL) per animal. As the tumor-bearing mice used in the present Example, mice (BALB/c nu/nu) that were in a tumor-bearing state brought about by transplanting human colorectal cancer cell line LS174T cells (ATCC(registered trademark); CL-188) at 2.0 to 5.0×10^6 cells/mouse subcutaneously on the back before administration of the sample were used. 24 hours after administration of the sample, the mice were sacrificed, the kidneys and the tumor were removed, and the amounts of Gd in the kidneys and in the tumor were measured using ICP-MS. The present test was carried out in 3 cases in each group, and the mean value of the 3 cases was calculated. The amount of Gd contained per kidney after administration was shown as a percentage of the amount of Gd administered (% of dose/tissue), and the amount of Gd contained per g of tumor tissue was shown as a percentage of the total amount of Gd administered (% of dose/g).

[5] = target: human cancer-specific MUC1 peptide; experiment: ELISA binding activity of anti-human MUC1 antibody Fab^5 fragment conjugates (Example 6-1); details: each conjugate run in duplicate; Table 52; read-out: EC50
Sequence of human cancer-specific MUC1 peptide (as listed by the source): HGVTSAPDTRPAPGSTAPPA
Method: Each anti-human MUC1 antibody Fab^5 fragment conjugate prepared by the method of Example 5 was subjected to ELISA to evaluate the binding activity thereof to human cancer-specific MUC1. In the present test, 20×PBS/Tween 20 Buffer (Thermo Fisher Scientific Inc., 28352) diluted 20-fold with distilled water was used as a wash liquid. In addition, for bovine serum albumin (BSA) used in the present test, 30% Bovine Serum Albumin solution (Sigma-Aldrich, Inc., A9576-50ML) was added in an appropriate proportion for use. A human cancer-specific MUC1 peptide (PTL 1) at 0.5 μmol/L was added to a Nunc MaxiSorp White 384 plate (Nunc, 460372) at 30 μL per well, and the plate was incubated overnight at 4° C. for immobilization. The MUC1 peptide was removed by reverse centrifugation, and then blocking was carried out by adding a PBS/Tween 20 buffer containing 5.0% BSA. Thereafter, the blocking solution was removed by reverse centrifugation, a solution of each anti-human MUC1 antibody Fab^5 fragment conjugate (Ex-No. 104, 108, or 112) described above at about 10000 ng/mL was diluted in 14 steps by 3-fold dilution using a PBS/Tween 20 buffer containing 1.0% BSA, and 30 μL was added per well and incubated at room temperature for 60 minutes. The plate was washed 3 times with a PBS/Tween 20 buffer, and Horseradish Peroxidase-labeled goat anti-human IgK antibody (Southern Biotechnology Associates, Inc.) diluted 10000-fold using a PBS/Tween 20 buffer containing 5.0% BSA was added at 30 μL per well and incubated at room temperature for 30 minutes. The plate was washed 3 times with a PBS/Tween 20 buffer, and ECL Prime Western Blotting DETECTION Reagent (GE Healthcare, RPN2232) as a substrate was added at 30 μL per well. The substrate was incubated at room temperature for 15 minutes, and then a signal value thereof was measured using an Envision counter (PerkinElmer, Inc.).
The test for each antibody was carried out in duplicate, and the EC50 value was calculated using a 4-parameter logistic curve model.

[6] = set-up: species or system mice (BALB/c or BALB/c nu/nu); details: mouse, in vivo; remark: listed apart in the source
Method: as §1
Based on the amount of Gd contained in the kidneys of the control conjugate, the proportion of decrease in the amount of Gd contained in the kidneys of each of the conjugates having a peptide linker was determined.

[7] = set-up: species or system mice (BALB/c nu/nu); details: mouse, in vivo; remark: listed apart in the source
Method: A Gd-labeled conjugate of the conjugate containing a peptide linker produced in one of the above Examples was administered from the tail vein of the tumor-bearing mice so that the protein mass was 0.02 mg (100 μL) per animal. As the tumor-bearing mice used in the present Example, mice (BALB/c nu/nu) that were in a tumor-bearing state brought about by transplanting human breast cancer cell line MDA-MB-468 (ATCC(registered trademark); HTB-132) at 5.0×10^6 cells/mouse subcutaneously on the back before administration of the sample were used. 24 hours after administration of the sample, the mice were sacrificed, the kidneys and the tumor were removed, and the amounts of Gd in the kidneys and in the tumor were measured using ICP-MS. The present test was carried out in 3 cases in each group, and the mean value of the 3 cases was calculated. The amount of Gd contained per kidney after administration was shown as a percentage of the amount of Gd administered (% of dose/tissue), and the amount of Gd contained per g of tumor tissue was shown as a percentage of the total amount of Gd administered (% of dose/g).

B1: [Gd/4arm-DOTA-CH2-(1,4-Ph)-NH—C(═S)-Gly-Phe-Lys*-Z2(#N)]p-Fab^2 (conjugate)
heavy: EVQLVESGGGLVQPGGSLRLSCAASGFNIRDTYMHWVRQAPGKGLEWVARIDPANGNSRYVPKFQGRFTISADTSRNTAYLQMNSLRAEDTAVYYCAPFGYYVSDYAMAYWGQGTLVTVSSASTKGPSVFPLAPSSKSTSGGTAALGCLVKDYFPEPVTVSWNSGALTSGVHTFPAVLQSSGLYSLSSVVTVPSSSLGTQTYICNVNHKPSNTKVDKKVEPKSCD
light: DIQLTQSPSSLSASVGDRVTITCRAGESVDIFGVGFLHWYQQKPGKAPKLLIYRASNLESGIPSRFSGSGSRTDFTLTISSLQPEDFATYYCQQTNEDPYTFGQGTKVEIKRTVAAPSVFIFPPSDEQLKSGTASVVCLLNNFYPREAKVQWKVDNALQSGNSQESVTEQDSKDSTYSLSSTLTLSKADYEKHKVYACEVTHQGLSSPVTKSFNRGEC
Which “Proportion of decrease (amount of Gd contained in the kidneys)” value ([1]; based on control conjugate Ex-No. 47, about 24 hours) does the source give for B1 here?
The value was 68.0%.

What about the “% of dose/tissue (amount of Gd contained per kidney)” value ([1]; tail vein, 0.02 mg protein per animal, about 24 hours, ICP-MS, mean of 3 cases) of the same molecule?
The value was 9.9 % of dose/tissue.

B2: [Gd/DOTA-NH—CH2-(1,4-Ph)-NH—C(═O)-Met-Ile-NH—(CH2)2-(A-4 and/or A-5)]p-Fab^2 (conjugate)
heavy: EVQLVESGGGLVQPGGSLRLSCAASGFNIRDTYMHWVRQAPGKGLEWVARIDPANGNSRYVPKFQGRFTISADTSRNTAYLQMNSLRAEDTAVYYCAPFGYYVSDYAMAYWGQGTLVTVSSASTKGPSVFPLAPSSKSTSGGTAALGCLVKDYFPEPVTVSWNSGALTSGVHTFPAVLQSSGLYSLSSVVTVPSSSLGTQTYICNVNHKPSNTKVDKKVEPKSCD
light: DIQLTQSPSSLSASVGDRVTITCRAGESVDIFGVGFLHWYQQKPGKAPKLLIYRASNLESGIPSRFSGSGSRTDFTLTISSLQPEDFATYYCQQTNEDPYTFGQGTKVEIKRTVAAPSVFIFPPSDEQLKSGTASVVCLLNNFYPREAKVQWKVDNALQSGNSQESVTEQDSKDSTYSLSSTLTLSKADYEKHKVYACEVTHQGLSSPVTKSFNRGEC
With B2 as the molecule, how does the “Renal residual amount (normal mice) % of dose/tissue” value [2] read?
Its value is 2.43 % of dose/tissue.

What about the “Renal residual amount (normal mice) Proportion of decrease” value [2] of the same molecule?
Its value is 92.15%.

B3: [Gd/DOTA-NH—CH2-(1,4-Ph)-NH—C(═O)-Met-Ile-NH—(CH2)2—Z1(#N)]p-Fab^2 (conjugate)
heavy: EVQLVESGGGLVQPGGSLRLSCAASGFNIRDTYMHWVRQAPGKGLEWVARIDPANGNSRYVPKFQGRFTISADTSRNTAYLQMNSLRAEDTAVYYCAPFGYYVSDYAMAYWGQGTLVTVSSASTKGPSVFPLAPSSKSTSGGTAALGCLVKDYFPEPVTVSWNSGALTSGVHTFPAVLQSSGLYSLSSVVTVPSSSLGTQTYICNVNHKPSNTKVDKKVEPKSCD
light: DIQLTQSPSSLSASVGDRVTITCRAGESVDIFGVGFLHWYQQKPGKAPKLLIYRASNLESGIPSRFSGSGSRTDFTLTISSLQPEDFATYYCQQTNEDPYTFGQGTKVEIKRTVAAPSVFIFPPSDEQLKSGTASVVCLLNNFYPREAKVQWKVDNALQSGNSQESVTEQDSKDSTYSLSSTLTLSKADYEKHKVYACEVTHQGLSSPVTKSFNRGEC
Which “Renal residual amount (normal mice) % of dose/tissue” value [3] does the source give for B3 here?
Its value is 2.60 % of dose/tissue.

What about the “Renal residual amount (normal mice) Proportion of decrease” value [3] of the same molecule?
The value was 91.13%.

And the “Renal residual amount (tumor-bearing mice) % of dose/tissue” value [4]?
The value was 5.77 % of dose/tissue.

What about the “Renal residual amount (tumor-bearing mice) Proportion of decrease” value [4] of the same molecule?
The value was 77.68%.

B4: Ex-No 10: (Y—S1—X)p-Fab^2: Y Gd/DOTA; S1 bond; X -Met-Ile-Lys*-Z2(#N)— (conjugate)
heavy: EVQLVESGGGLVQPGGSLRLSCAASGFNIRDTYMHWVRQAPGKGLEWVARIDPANGNSRYVPKFQGRFTISADTSRNTAYLQMNSLRAEDTAVYYCAPFGYYVSDYAMAYWGQGTLVTVSSASTKGPSVFPLAPSSKSTSGGTAALGCLVKDYFPEPVTVSWNSGALTSGVHTFPAVLQSSGLYSLSSVVTVPSSSLGTQTYICNVNHKPSNTKVDKKVEPKSCD
light: DIQLTQSPSSLSASVGDRVTITCRAGESVDIFGVGFLHWYQQKPGKAPKLLIYRASNLESGIPSRFSGSGSRTDFTLTISSLQPEDFATYYCQQTNEDPYTFGQGTKVEIKRTVAAPSVFIFPPSDEQLKSGTASVVCLLNNFYPREAKVQWKVDNALQSGNSQESVTEQDSKDSTYSLSSTLTLSKADYEKHKVYACEVTHQGLSSPVTKSFNRGEC
Which “Renal residual amount (normal mice) % of dose/tissue” value [3] does the source give for B4 here?
The value was 20.10 % of dose/tissue.

And the “Renal residual amount (normal mice) Proportion of decrease” value [3]?
Its value is 31.46%.

B5: [Gd/DOTA]p-Fab^2 (conjugate)
heavy: EVQLVESGGGLVQPGGSLRLSCAASGFNIRDTYMHWVRQAPGKGLEWVARIDPANGNSRYVPKFQGRFTISADTSRNTAYLQMNSLRAEDTAVYYCAPFGYYVSDYAMAYWGQGTLVTVSSASTKGPSVFPLAPSSKSTSGGTAALGCLVKDYFPEPVTVSWNSGALTSGVHTFPAVLQSSGLYSLSSVVTVPSSSLGTQTYICNVNHKPSNTKVDKKVEPKSCD
light: DIQLTQSPSSLSASVGDRVTITCRAGESVDIFGVGFLHWYQQKPGKAPKLLIYRASNLESGIPSRFSGSGSRTDFTLTISSLQPEDFATYYCQQTNEDPYTFGQGTKVEIKRTVAAPSVFIFPPSDEQLKSGTASVVCLLNNFYPREAKVQWKVDNALQSGNSQESVTEQDSKDSTYSLSSTLTLSKADYEKHKVYACEVTHQGLSSPVTKSFNRGEC
For B5, which “Renal residual amount (normal mice) Mean” value [3] is on record?
The value was 29.33 % of dose/tissue.

And the “Renal residual amount (tumor-bearing mice) Mean” value [4]?
Its value is 25.83 % of dose/tissue.

And the “Renal residual amount (normal mice) % of dose/tissue” value [2]?
The value was 31.33 % of dose/tissue.

B6: [Gd/DOTA-NH—CH2-(1,4-Ph)-NH—C(═O)-Met-Ile-NH—(CH2)2-(A-3)]p-Fab^2 (conjugate)
heavy: EVQLVESGGGLVQPGGSLRLSCAASGFNIRDTYMHWVRQAPGKGLEWVARIDPANGNSRYVPKFQGRFTISADTSRNTAYLQMNSLRAEDTAVYYCAPFGYYVSDYAMAYWGQGTLVTVSSASTKGPSVFPLAPSSKSTSGGTAALGCLVKDYFPEPVTVSWNSGALTSGVHTFPAVLQSSGLYSLSSVVTVPSSSLGTQTYICNVNHKPSNTKVDKKVEPKSCD
light: DIQLTQSPSSLSASVGDRVTITCRAGESVDIFGVGFLHWYQQKPGKAPKLLIYRASNLESGIPSRFSGSGSRTDFTLTISSLQPEDFATYYCQQTNEDPYTFGQGTKVEIKRTVAAPSVFIFPPSDEQLKSGTASVVCLLNNFYPREAKVQWKVDNALQSGNSQESVTEQDSKDSTYSLSSTLTLSKADYEKHKVYACEVTHQGLSSPVTKSFNRGEC
With B6 as the molecule, how does the “Renal residual amount (normal mice) % of dose/tissue” value [2] read?
Its value is 1.43 % of dose/tissue.

What about the “Renal residual amount (normal mice) Proportion of decrease” value [2] of the same molecule?
The value was 95.38%.

B7: [Gd/DOTA-NH—CH2-(1,4-Ph)-NH—C(═O)-Met-Ile-NH—(CH2)2-(A-4 and/or A-5)]p-Fab^5 (conjugate)
heavy: QVQLVQSGAEVKKPGASVKVSCKASGYTFTNYGLSWVRQAPGQGLEWMGENHPGSGIIYHNEKFRGRVTLTADRSTSTAYMELSSLRSEDTAVYYCARSSGTRGFDYWGQGTLVTVSSASTKGPSVFPLAPSSKSTSGGTAALGCLVKDYFPEPVTVSWNSGALTSGVHTFPAVLQSSGLYSLSSVVTVPSSSLGTQTYICNVNHKPSNTKVDKKVEPKSCD
light: DVVMTQTPLSLSVTPGQPASISCRSSQSIVHSNGNTYLEWYLQKPGQSPQLLIYRVSNRFSGVPDRFSGSGSGTDFTLKISRVEAEDVGVYYCFQGSHGPWTFGQGTKLEIKRTVAAPSVFIFPPSDEQLKSGTASVVCLLNNFYPREAKVQWKVDNALQSGNSQESVTEQDSKDSTYSLSSTLTLSKADYEKHKVYACEVTHQGLSSPVTKSFNRGEC
modifications: non-natural residues
What does the source list for B7?
EC50 [5]: 0.08 nM; Renal residual amount (normal mice) % of dose/tissue [6]: 2.30 % of dose/tissue; Renal residual amount (normal mice) Proportion of decrease [6]: 93.03%; Renal residual amount (tumor-bearing mice) % of dose/tissue [7]: 3.17 % of dose/tissue; Renal residual amount (tumor-bearing mice) Proportion of decrease [7]: 90.87%

B8: [Gd/DOTA-NH—CH2-(1,4-Ph)-NH—C(═O)-Met-Ile-NH—(CH2)2-(A-3)]p-Fab^5 (conjugate)
heavy: QVQLVQSGAEVKKPGASVKVSCKASGYTFTNYGLSWVRQAPGQGLEWMGENHPGSGIIYHNEKFRGRVTLTADRSTSTAYMELSSLRSEDTAVYYCARSSGTRGFDYWGQGTLVTVSSASTKGPSVFPLAPSSKSTSGGTAALGCLVKDYFPEPVTVSWNSGALTSGVHTFPAVLQSSGLYSLSSVVTVPSSSLGTQTYICNVNHKPSNTKVDKKVEPKSCD
light: DVVMTQTPLSLSVTPGQPASISCRSSQSIVHSNGNTYLEWYLQKPGQSPQLLIYRVSNRFSGVPDRFSGSGSGTDFTLKISRVEAEDVGVYYCFQGSHGPWTFGQGTKLEIKRTVAAPSVFIFPPSDEQLKSGTASVVCLLNNFYPREAKVQWKVDNALQSGNSQESVTEQDSKDSTYSLSSTLTLSKADYEKHKVYACEVTHQGLSSPVTKSFNRGEC
modifications: non-natural residues
With B8 as the molecule, how does the EC50 [5] read?
The EC50 was 0.15 nM.

What about the “Renal residual amount (normal mice) % of dose/tissue” value [6] of the same molecule?
The value was 2.80 % of dose/tissue.

And the “Renal residual amount (normal mice) Proportion of decrease” value [6]?
The value was 91.52%.

What about the “Renal residual amount (tumor-bearing mice) % of dose/tissue” value [7] of the same molecule?
The value was 4.13 % of dose/tissue.

What about the “Renal residual amount (tumor-bearing mice) Proportion of decrease” value [7] of the same molecule?
The value was 88.08%.
